According to paper PMC7644671 (Nature structural & molecular biology, 2020):

Target: the molecule itself
Assay: cryo-EM structure

B1: mouse DUOX1 (enzyme, mouse (Mus musculus), UniProt A2AQ92 20-1551, looked up)
chain: GAQNSISWEVQRFDGWYNNLMEHRWGSKGSRLQRLVPASYADGVYQPLKEPYLPNPRHLSNRVMRGSAGQPSLRNRTVLGVFFGYHVLSDLVSVETPGCPAEFLNIYIPHGDPVFDPDKRGNVVLPFQRSRWDRNTGQSPSNPRDQSNQVTGWLDGSAIYGSSHSWSDTLRSFSGGQLASGPDPAFPSDSQSSLLMWMAPDPSTGQGGPRGVYAFGAQRGNREPFLQALGLLWFRYHNLCARKLAQEHPHWGDEELFQHARKRVIATYQNIAMYEWLPSFLKQTPPEYPGYRPFLDPSISPEFVVASEQFLSTMVPSGVYMRNASCHFQGIPSHNSSVSGALRVCNSYWSREHPKLQRAEDVDALLLGMASQIAEREDHVVVEDMQDFWPGPLKFSRTDYLASCLQRGRDLGLPSYTKAREALGLSPISHWQDINPALSRSNGTVLEATAALYNQDLSRLELLPGGLLESHGDPGPLFSTIVLDQFVRLRDGDRYWFENTRNGLFSKEEIAEIRNTSLRDILVAVTNVDPSALQPNVFFWLAGDPCPQPSQLSAKGLPACAPLFIRDYFEGSGFGFGLTIGTLCCFPLVSLLSAWIVARLRKRNFKRLQRQDRQSIMSEKLVGGVEALEWQGRNEPCRPVLVHLQPGQIRVVDGRLTVLRTIQLRPPQQVNLILSSNRGRRTLLLKIPKEYDLVLLFNMEEERQALVENVRGALKENGLSFQEWELREQELMRAAVTRQQRGHLLETFFRHLFSQVLDINQADAGTLPLDSSTKVREALTCELSRAEFADSLGLKPQDMFVESMFSLADKDGNGYLSFREFLDILVVFMKGSPEEKSRLMFRMYDFDGNGLISKDEFIRMLRSFIEISNNCLSKAQLAEVVESMFRESGFQDKEELTWEDFHFMLRDHDSDLRFTQLCVKGVEVPEVIKNLCRRASYISQEKICPSPRMSAHCARNNMKTASSPQRLQCPMDTDPPQEIRRRFGKKVTSFQPLLFTEAHREKFQRSRRHQTVQQFKRFIENYRRHIGCVAVFYTITGALFLERAYYYAFAAHHSGITDTTRVGIILSRGTAASISFMFSYILLTMCRNLITFLRETFLNRYIPFDAAVDFHRLIASTAIILTVLHSAGHVVNVYLFSISPLSVLSCLFPGLFHDDGSEFPQKYYWWFFQTVPGLTGVLLLLALAIMYVFASHHFRRRSFRGFWLTHHLYIFLYILLIIHGSFALIQMPRFHIFFLVPAIIYVGDKLVSLSRKKVEISVVKAELLPSGVTHLRFQRPQGFEYKSGQWVRIACLALGTTEYHPFTLTSAPHEDTLSLHIRAAGPWTTRLREIYSPPTGDTCARYPKLYLDGPFGEGHQEWHKFEVSVLVGGGIGVTPFASILKDLVFKSSVSCQVFCKKIYFIWVTRTQRQFEWLADIIREVEENDRQDLVSVHIYITQLAEKFDLRTTMLYICERHFQKVLNRSLFTGLRSITHFGRPPFEPFFNSLQEVHPQVRKIGVFSCGPPGMTKNVEKACQLINRQDRTHFSHHYENF
modifications: sugar densities at glycosylation sites N94, N324 and N534
**Q.** Which “stoichiometry N” value does the source give for B1 here?
**A.** 2
